# Measurements taken from US20140087995A1 (published 2014).
# Numbered stars: 1 amine (or outer) side, 2 acyl side, 3 side chain; on linkers, the order of the positions; unused ones are H or OH. Bridge positions count the residues as written; N and C are the ends. Side chains are listed from the residue outwards. Ends that are not written are not given here. * marks the point of attachment. C20 diacid = O=C(O)CCCCCCCCCCCCCCCCCCC(=O)*; γGlu = O=C(O)[C@H](CCC(=O)[*:2])N[*:1]
# T1: human calcitonin receptor (human, UniProt P30988 25-474)
# T1 construct: whole, on cells; Used as cell membranes; also called hCTR; hCT
# T1 sequence (looked up): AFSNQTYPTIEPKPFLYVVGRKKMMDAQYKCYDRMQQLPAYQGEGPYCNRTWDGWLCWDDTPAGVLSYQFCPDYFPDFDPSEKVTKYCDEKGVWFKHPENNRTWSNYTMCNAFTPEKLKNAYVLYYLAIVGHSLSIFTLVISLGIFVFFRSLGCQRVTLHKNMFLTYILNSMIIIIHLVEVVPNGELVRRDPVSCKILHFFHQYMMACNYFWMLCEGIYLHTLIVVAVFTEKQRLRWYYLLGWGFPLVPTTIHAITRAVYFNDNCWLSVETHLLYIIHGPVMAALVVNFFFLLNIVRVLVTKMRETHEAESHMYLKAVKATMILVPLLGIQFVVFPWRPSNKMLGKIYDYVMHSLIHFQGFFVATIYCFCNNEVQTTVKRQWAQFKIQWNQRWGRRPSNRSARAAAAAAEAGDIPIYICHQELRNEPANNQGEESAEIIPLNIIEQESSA
# How the values were obtained:
# [1] = biological target: T1, human calcitonin receptor; assay: ratio of hCTR IC50 to hAmylin-R IC50 (reference: human amylin receptor)
# Procedure, shortened: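 Scintillation proximity competition binding on cell membranes at 35 ng/μL with SPA beads, in 50 mM Hepes pH 7.4, 1 mM CaCl2, 5 mM MgCl₂, 0.1% OA, 0.02% Tween20. Incubated 120 min at 25° C with shaking. IC₅₀ from one-site competition fit.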
# [2] = biological target: T1, human calcitonin receptor; assay: SPA competition on BHK cell membranes, 125I-calcitonin as radioligand (Assay VII)
# Procedure, shortened: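 BHK hCTR membranes 35 ng/μL + SPA beads 0.05 mg/well; buffer 50 mM Hepes pH 7.4, 1 mM CaCl2, 5 mM MgCl₂, 0.1% OA, 0.02% Tween20. 120 min, 25° C., shaking. Scintillation count; IC50 by one-site binding competition.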
Binder,Ratio hCT/hAmylin binding [1],IC50 [2] [nM]
"K([γGlu-C20 diacid])CNTATCATQRLAAFLRHSSPNFGAIPSSTNVGPNTY-NH2 (disulfide 2-7; N-terminus assumed; SMILES CC[C@H](C)[C@H](NC(=O)[C@H](C)NC(=O)CNC(=O)[C@H](Cc1ccccc1)NC(=O)[C@H](CC(N)=O)NC(=O)[C@@H]1CCCN1C(=O)[C@H](CO)NC(=O)[C@H](CO)NC(=O)[C@H](Cc1c[nH]cn1)NC(=O)[C@H](CCCNC(=N)N)NC(=O)[C@H](CC(C)C)NC(=O)[C@H](Cc1ccccc1)NC(=O)[C@H](C)NC(=O)[C@H](C)NC(=O)[C@H](CC(C)C)NC(=O)[C@H](CCCNC(=N)N)NC(=O)[C@H](CCC(N)=O)NC(=O)[C@@H](NC(=O)[C@H](C)NC(=O)[C@@H]1CSSC[C@H](NC(=O)[C@@H](N)CCCCNC(=O)CC[C@H](NC(=O)CCCCCCCCCCCCCCCCCCC(=O)O)C(=O)O)C(=O)N[C@@H](CC(N)=O)C(=O)N[C@@H]([C@@H](C)O)C(=O)N[C@@H](C)C(=O)N[C@@H]([C@@H](C)O)C(=O)N1)[C@@H](C)O)C(=O)N1CCC[C@H]1C(=O)N[C@@H](CO)C(=O)N[C@@H](CO)C(=O)N[C@H](C(=O)N[C@@H](CC(N)=O)C(=O)N[C@H](C(=O)NCC(=O)N1CCC[C@H]1C(=O)N[C@@H](CC(N)=O)C(=O)N[C@H](C(=O)N[C@@H](Cc1ccc(O)cc1)C(N)=O)[C@@H](C)O)C(C)C)[C@@H](C)O, also called compound 94)",46.3,6.86
K([γGlu-C20 diacid])CNTATCATQRLAEFLRHSSPNFGAIPSSTNVGRETY-NH2 (disulfide 2-7; N-terminus assumed; SMILES CC[C@H](C)[C@H](NC(=O)[C@H](C)NC(=O)CNC(=O)[C@H](Cc1ccccc1)NC(=O)[C@H](CC(N)=O)NC(=O)[C@@H]1CCCN1C(=O)[C@H](CO)NC(=O)[C@H](CO)NC(=O)[C@H](Cc1c[nH]cn1)NC(=O)[C@H](CCCNC(=N)N)NC(=O)[C@H](CC(C)C)NC(=O)[C@H](Cc1ccccc1)NC(=O)[C@H](CCC(=O)O)NC(=O)[C@H](C)NC(=O)[C@H](CC(C)C)NC(=O)[C@H](CCCNC(=N)N)NC(=O)[C@H](CCC(N)=O)NC(=O)[C@@H](NC(=O)[C@H](C)NC(=O)[C@@H]1CSSC[C@H](NC(=O)[C@@H](N)CCCCNC(=O)CC[C@H](NC(=O)CCCCCCCCCCCCCCCCCCC(=O)O)C(=O)O)C(=O)N[C@@H](CC(N)=O)C(=O)N[C@@H]([C@@H](C)O)C(=O)N[C@@H](C)C(=O)N[C@@H]([C@@H](C)O)C(=O)N1)[C@@H](C)O)C(=O)N1CCC[C@H]1C(=O)N[C@@H](CO)C(=O)N[C@@H](CO)C(=O)N[C@H](C(=O)N[C@@H](CC(N)=O)C(=O)N[C@H](C(=O)NCC(=O)N[C@@H](CCCNC(=N)N)C(=O)N[C@@H](CCC(=O)O)C(=O)N[C@H](C(=O)N[C@@H](Cc1ccc(O)cc1)C(N)=O)[C@@H](C)O)C(C)C)[C@@H](C)O),28.5,6.62
"K([γGlu-C20 diacid])CNTATCATQRLANFLRHSSPNFGAIPSSTNVGRNTY-NH2 (disulfide 2-7; N-terminus assumed; SMILES CC[C@H](C)[C@H](NC(=O)[C@H](C)NC(=O)CNC(=O)[C@H](Cc1ccccc1)NC(=O)[C@H](CC(N)=O)NC(=O)[C@@H]1CCCN1C(=O)[C@H](CO)NC(=O)[C@H](CO)NC(=O)[C@H](Cc1c[nH]cn1)NC(=O)[C@H](CCCNC(=N)N)NC(=O)[C@H](CC(C)C)NC(=O)[C@H](Cc1ccccc1)NC(=O)[C@H](CC(N)=O)NC(=O)[C@H](C)NC(=O)[C@H](CC(C)C)NC(=O)[C@H](CCCNC(=N)N)NC(=O)[C@H](CCC(N)=O)NC(=O)[C@@H](NC(=O)[C@H](C)NC(=O)[C@@H]1CSSC[C@H](NC(=O)[C@@H](N)CCCCNC(=O)CC[C@H](NC(=O)CCCCCCCCCCCCCCCCCCC(=O)O)C(=O)O)C(=O)N[C@@H](CC(N)=O)C(=O)N[C@@H]([C@@H](C)O)C(=O)N[C@@H](C)C(=O)N[C@@H]([C@@H](C)O)C(=O)N1)[C@@H](C)O)C(=O)N1CCC[C@H]1C(=O)N[C@@H](CO)C(=O)N[C@@H](CO)C(=O)N[C@H](C(=O)N[C@@H](CC(N)=O)C(=O)N[C@H](C(=O)NCC(=O)N[C@@H](CCCNC(=N)N)C(=O)N[C@@H](CC(N)=O)C(=O)N[C@H](C(=O)N[C@@H](Cc1ccc(O)cc1)C(N)=O)[C@@H](C)O)C(C)C)[C@@H](C)O, also called compound 79) [N^ε1-[(4S)-4-carboxy-4-(19-carboxynonadecanoylamino)butanoyl]-[Arg17,Pro21,Pro27,Arg34]-h-amylin]",46.1,36.4

# More lines, in order of falling IC50 [2], values ahead:
Ratio hCT/hAmylin binding [1],IC50 [2] [nM],Binder
82.4,53.5,"K([γGlu-C20 diacid])CNTATCATQRLARFLRHSSPNFGAIPSSTNVGPNTY-NH2 (disulfide 2-7; N-terminus assumed; SMILES CC[C@H](C)[C@H](NC(=O)[C@H](C)NC(=O)CNC(=O)[C@H](Cc1ccccc1)NC(=O)[C@H](CC(N)=O)NC(=O)[C@@H]1CCCN1C(=O)[C@H](CO)NC(=O)[C@H](CO)NC(=O)[C@H](Cc1c[nH]cn1)NC(=O)[C@H](CCCNC(=N)N)NC(=O)[C@H](CC(C)C)NC(=O)[C@H](Cc1ccccc1)NC(=O)[C@H](CCCNC(=N)N)NC(=O)[C@H](C)NC(=O)[C@H](CC(C)C)NC(=O)[C@H](CCCNC(=N)N)NC(=O)[C@H](CCC(N)=O)NC(=O)[C@@H](NC(=O)[C@H](C)NC(=O)[C@@H]1CSSC[C@H](NC(=O)[C@@H](N)CCCCNC(=O)CC[C@H](NC(=O)CCCCCCCCCCCCCCCCCCC(=O)O)C(=O)O)C(=O)N[C@@H](CC(N)=O)C(=O)N[C@@H]([C@@H](C)O)C(=O)N[C@@H](C)C(=O)N[C@@H]([C@@H](C)O)C(=O)N1)[C@@H](C)O)C(=O)N1CCC[C@H]1C(=O)N[C@@H](CO)C(=O)N[C@@H](CO)C(=O)N[C@H](C(=O)N[C@@H](CC(N)=O)C(=O)N[C@H](C(=O)NCC(=O)N1CCC[C@H]1C(=O)N[C@@H](CC(N)=O)C(=O)N[C@H](C(=O)N[C@@H](Cc1ccc(O)cc1)C(N)=O)[C@@H](C)O)C(C)C)[C@@H](C)O, also called compound 65)"
11.1,4.28,"K([γGlu-C20 diacid])CNTATCATQRLAEFLRHSSPNFGAIPSSTNVGHETY-NH2 (disulfide 2-7; N-terminus assumed; SMILES CC[C@H](C)[C@H](NC(=O)[C@H](C)NC(=O)CNC(=O)[C@H](Cc1ccccc1)NC(=O)[C@H](CC(N)=O)NC(=O)[C@@H]1CCCN1C(=O)[C@H](CO)NC(=O)[C@H](CO)NC(=O)[C@H](Cc1c[nH]cn1)NC(=O)[C@H](CCCNC(=N)N)NC(=O)[C@H](CC(C)C)NC(=O)[C@H](Cc1ccccc1)NC(=O)[C@H](CCC(=O)O)NC(=O)[C@H](C)NC(=O)[C@H](CC(C)C)NC(=O)[C@H](CCCNC(=N)N)NC(=O)[C@H](CCC(N)=O)NC(=O)[C@@H](NC(=O)[C@H](C)NC(=O)[C@@H]1CSSC[C@H](NC(=O)[C@@H](N)CCCCNC(=O)CC[C@H](NC(=O)CCCCCCCCCCCCCCCCCCC(=O)O)C(=O)O)C(=O)N[C@@H](CC(N)=O)C(=O)N[C@@H]([C@@H](C)O)C(=O)N[C@@H](C)C(=O)N[C@@H]([C@@H](C)O)C(=O)N1)[C@@H](C)O)C(=O)N1CCC[C@H]1C(=O)N[C@@H](CO)C(=O)N[C@@H](CO)C(=O)N[C@H](C(=O)N[C@@H](CC(N)=O)C(=O)N[C@H](C(=O)NCC(=O)N[C@@H](Cc1c[nH]cn1)C(=O)N[C@@H](CCC(=O)O)C(=O)N[C@H](C(=O)N[C@@H](Cc1ccc(O)cc1)C(N)=O)[C@@H](C)O)C(C)C)[C@@H](C)O, also called compound 107)"
13.3,1.86,K([γGlu-C20 diacid])CNTATCATQRLAEFLRHSSPNFGAIPSSTNVGPETY-NH2 (disulfide 2-7; N-terminus assumed; SMILES CC[C@H](C)[C@H](NC(=O)[C@H](C)NC(=O)CNC(=O)[C@H](Cc1ccccc1)NC(=O)[C@H](CC(N)=O)NC(=O)[C@@H]1CCCN1C(=O)[C@H](CO)NC(=O)[C@H](CO)NC(=O)[C@H](Cc1c[nH]cn1)NC(=O)[C@H](CCCNC(=N)N)NC(=O)[C@H](CC(C)C)NC(=O)[C@H](Cc1ccccc1)NC(=O)[C@H](CCC(=O)O)NC(=O)[C@H](C)NC(=O)[C@H](CC(C)C)NC(=O)[C@H](CCCNC(=N)N)NC(=O)[C@H](CCC(N)=O)NC(=O)[C@@H](NC(=O)[C@H](C)NC(=O)[C@@H]1CSSC[C@H](NC(=O)[C@@H](N)CCCCNC(=O)CC[C@H](NC(=O)CCCCCCCCCCCCCCCCCCC(=O)O)C(=O)O)C(=O)N[C@@H](CC(N)=O)C(=O)N[C@@H]([C@@H](C)O)C(=O)N[C@@H](C)C(=O)N[C@@H]([C@@H](C)O)C(=O)N1)[C@@H](C)O)C(=O)N1CCC[C@H]1C(=O)N[C@@H](CO)C(=O)N[C@@H](CO)C(=O)N[C@H](C(=O)N[C@@H](CC(N)=O)C(=O)N[C@H](C(=O)NCC(=O)N1CCC[C@H]1C(=O)N[C@@H](CCC(=O)O)C(=O)N[C@H](C(=O)N[C@@H](Cc1ccc(O)cc1)C(N)=O)[C@@H](C)O)C(C)C)[C@@H](C)O)
